Laboratory results from publication PMC2904749.
Values belong to the substance of their own block, whether it stands above or below them.

Tests used:
[1] = biological target: human βB2-crystallin doubly deamidated mutant Q70EQ162E (human); experiment: small angle X-ray scattering
[2] = biological target: human βB2-crystallin doubly deamidated mutant Q70EQ162E (human); experiment: dynamic light scattering
[3] = biological target: human βB2-crystallin Q70E (human); experiment: small angle X-ray scattering
[4] = biological target: human βB2-crystallin Q70E (human); experiment: dynamic light scattering
[5] = biological target: human βB2-crystallin Q162E (human); experiment: small angle X-ray scattering
[6] = biological target: human βB2-crystallin Q162E (human); experiment: dynamic light scattering

stoichiometry N [1]: 2
stoichiometry N [2]: 2
Substance: human βB2-crystallin doubly deamidated mutant Q70EQ162E (natural protein)

stoichiometry N [3]: 2
stoichiometry N [4]: 2
Substance: human βB2-crystallin Q70E (natural protein)

stoichiometry N [5]: 2
stoichiometry N [6]: 2
Substance: human βB2-crystallin Q162E (natural protein)
